target: GST-GCN5; assay: pull-down; GST-GCN5 (1 ug) immobilised on glutathione beads, pre-treated with DNase I and RNase H; incubated with 600 c.p.m. of in vitro translated [35S]-IN proteins in 0.2 mg/ml ethidium bromide; SDS-PAGE and phosphoimaging; bound protein as percent of radiolabeled input
Sequence (Q92830 2-837): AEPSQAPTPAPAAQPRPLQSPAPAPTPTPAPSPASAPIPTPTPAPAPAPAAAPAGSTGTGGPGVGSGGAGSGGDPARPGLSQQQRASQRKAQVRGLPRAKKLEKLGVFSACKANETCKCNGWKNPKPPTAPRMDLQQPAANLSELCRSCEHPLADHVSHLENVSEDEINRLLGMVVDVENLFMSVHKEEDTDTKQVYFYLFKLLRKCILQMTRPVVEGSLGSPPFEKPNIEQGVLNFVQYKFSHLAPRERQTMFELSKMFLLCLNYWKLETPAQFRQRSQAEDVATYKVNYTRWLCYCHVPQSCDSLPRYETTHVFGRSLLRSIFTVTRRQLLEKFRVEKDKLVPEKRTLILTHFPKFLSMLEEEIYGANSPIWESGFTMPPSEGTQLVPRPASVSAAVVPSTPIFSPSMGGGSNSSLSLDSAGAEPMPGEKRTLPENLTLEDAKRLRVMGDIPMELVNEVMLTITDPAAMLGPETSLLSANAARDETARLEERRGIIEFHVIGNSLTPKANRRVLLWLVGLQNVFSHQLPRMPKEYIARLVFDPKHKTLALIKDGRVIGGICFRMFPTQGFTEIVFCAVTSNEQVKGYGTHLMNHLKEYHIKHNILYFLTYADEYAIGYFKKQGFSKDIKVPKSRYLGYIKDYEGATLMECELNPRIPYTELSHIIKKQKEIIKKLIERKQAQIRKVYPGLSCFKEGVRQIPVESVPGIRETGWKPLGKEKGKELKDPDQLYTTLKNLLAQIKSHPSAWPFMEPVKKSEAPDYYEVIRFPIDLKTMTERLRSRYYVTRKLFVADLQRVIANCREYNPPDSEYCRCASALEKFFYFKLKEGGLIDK

Substance | binding efficiency (percent of radiolabeled input bound)
35S-IN fragment 1-263 (from UniProt P04585 2-264) (domain or fragment) | 13%
35S-IN fragment 1-272 (from UniProt P04585 2-273) (domain or fragment) | 13%
35S-IN, full-length HIV-1 integrase, in vitro translated (from UniProt P04585) (enzyme) | 16%

— article PMC2848186
